This is an account of results in patent US20210388087A1 (Chugai, published 2021).

First the molecules themselves.
B1: H183/L072 VH Y59F (antibody, name in Kabat numbering, V domains shown)
VH: QVQLVESGGGLVQPGRSLRLSCAASGFTFSNAWMHWVRQAPGKGLEWVAQIKDKGNAYAAYFAPSVKGRFTISRDDSKNSIYLQMNSLKTEDTAVYYCHYVHYASASTVLPAFGVDAWGQGTTVTVSS
VL: DIVMTQSPLSLPVTPGEPASISCQASQELVHMNRNTYLHWYQQKPGQAPRLLIYKVSNRFPGVPDRFSGSGSGTDFTLKISRVEAEDVGVYYCAQGTSVPFTFGQGTKLEIK
B2: H183/L072 VH Y94M (antibody, name in Kabat numbering, V domains shown)
VH: QVQLVESGGGLVQPGRSLRLSCAASGFTFSNAWMHWVRQAPGKGLEWVAQIKDKGNAYAAYYAPSVKGRFTISRDDSKNSIYLQMNSLKTEDTAVYYCHMVHYASASTVLPAFGVDAWGQGTTVTVSS
VL: DIVMTQSPLSLPVTPGEPASISCQASQELVHMNRNTYLHWYQQKPGQAPRLLIYKVSNRFPGVPDRFSGSGSGTDFTLKISRVEAEDVGVYYCAQGTSVPFTFGQGTKLEIK
B3: H183/L072 VH Y59Q (antibody, name in Kabat numbering, V domains shown)
VH: QVQLVESGGGLVQPGRSLRLSCAASGFTFSNAWMHWVRQAPGKGLEWVAQIKDKGNAYAAYQAPSVKGRFTISRDDSKNSIYLQMNSLKTEDTAVYYCHYVHYASASTVLPAFGVDAWGQGTTVTVSS
VL: DIVMTQSPLSLPVTPGEPASISCQASQELVHMNRNTYLHWYQQKPGQAPRLLIYKVSNRFPGVPDRFSGSGSGTDFTLKISRVEAEDVGVYYCAQGTSVPFTFGQGTKLEIK
B4: H183/L072 VH Y94L (antibody, name in Kabat numbering, V domains shown)
VH: QVQLVESGGGLVQPGRSLRLSCAASGFTFSNAWMHWVRQAPGKGLEWVAQIKDKGNAYAAYYAPSVKGRFTISRDDSKNSIYLQMNSLKTEDTAVYYCHLVHYASASTVLPAFGVDAWGQGTTVTVSS
VL: DIVMTQSPLSLPVTPGEPASISCQASQELVHMNRNTYLHWYQQKPGQAPRLLIYKVSNRFPGVPDRFSGSGSGTDFTLKISRVEAEDVGVYYCAQGTSVPFTFGQGTKLEIK
B5: H183/L072 VH Y59G (antibody, name in Kabat numbering, V domains shown)
VH: QVQLVESGGGLVQPGRSLRLSCAASGFTFSNAWMHWVRQAPGKGLEWVAQIKDKGNAYAAYGAPSVKGRFTISRDDSKNSIYLQMNSLKTEDTAVYYCHYVHYASASTVLPAFGVDAWGQGTTVTVSS
VL: DIVMTQSPLSLPVTPGEPASISCQASQELVHMNRNTYLHWYQQKPGQAPRLLIYKVSNRFPGVPDRFSGSGSGTDFTLKISRVEAEDVGVYYCAQGTSVPFTFGQGTKLEIK
B6: H183/L072 VH Y59H (antibody, name in Kabat numbering, V domains shown)
VH: QVQLVESGGGLVQPGRSLRLSCAASGFTFSNAWMHWVRQAPGKGLEWVAQIKDKGNAYAAYHAPSVKGRFTISRDDSKNSIYLQMNSLKTEDTAVYYCHYVHYASASTVLPAFGVDAWGQGTTVTVSS
VL: DIVMTQSPLSLPVTPGEPASISCQASQELVHMNRNTYLHWYQQKPGQAPRLLIYKVSNRFPGVPDRFSGSGSGTDFTLKISRVEAEDVGVYYCAQGTSVPFTFGQGTKLEIK
B7: H183/L072 VH Y59T (antibody, name in Kabat numbering, V domains shown)
VH: QVQLVESGGGLVQPGRSLRLSCAASGFTFSNAWMHWVRQAPGKGLEWVAQIKDKGNAYAAYTAPSVKGRFTISRDDSKNSIYLQMNSLKTEDTAVYYCHYVHYASASTVLPAFGVDAWGQGTTVTVSS
VL: DIVMTQSPLSLPVTPGEPASISCQASQELVHMNRNTYLHWYQQKPGQAPRLLIYKVSNRFPGVPDRFSGSGSGTDFTLKISRVEAEDVGVYYCAQGTSVPFTFGQGTKLEIK
B8: H183/L072 VH Y59R (antibody, name in Kabat numbering, V domains shown)
VH: QVQLVESGGGLVQPGRSLRLSCAASGFTFSNAWMHWVRQAPGKGLEWVAQIKDKGNAYAAYRAPSVKGRFTISRDDSKNSIYLQMNSLKTEDTAVYYCHYVHYASASTVLPAFGVDAWGQGTTVTVSS
VL: DIVMTQSPLSLPVTPGEPASISCQASQELVHMNRNTYLHWYQQKPGQAPRLLIYKVSNRFPGVPDRFSGSGSGTDFTLKISRVEAEDVGVYYCAQGTSVPFTFGQGTKLEIK
B9: H183/L072 VH Y59L (antibody, name in Kabat numbering, V domains shown)
VH: QVQLVESGGGLVQPGRSLRLSCAASGFTFSNAWMHWVRQAPGKGLEWVAQIKDKGNAYAAYLAPSVKGRFTISRDDSKNSIYLQMNSLKTEDTAVYYCHYVHYASASTVLPAFGVDAWGQGTTVTVSS
VL: DIVMTQSPLSLPVTPGEPASISCQASQELVHMNRNTYLHWYQQKPGQAPRLLIYKVSNRFPGVPDRFSGSGSGTDFTLKISRVEAEDVGVYYCAQGTSVPFTFGQGTKLEIK
B10: H183/L072 VH Y94P (antibody, name in Kabat numbering, V domains shown)
VH: QVQLVESGGGLVQPGRSLRLSCAASGFTFSNAWMHWVRQAPGKGLEWVAQIKDKGNAYAAYYAPSVKGRFTISRDDSKNSIYLQMNSLKTEDTAVYYCHPVHYASASTVLPAFGVDAWGQGTTVTVSS
VL: DIVMTQSPLSLPVTPGEPASISCQASQELVHMNRNTYLHWYQQKPGQAPRLLIYKVSNRFPGVPDRFSGSGSGTDFTLKISRVEAEDVGVYYCAQGTSVPFTFGQGTKLEIK
B11: H183/L072 VH Y59N (antibody, name in Kabat numbering, V domains shown)
VH: QVQLVESGGGLVQPGRSLRLSCAASGFTFSNAWMHWVRQAPGKGLEWVAQIKDKGNAYAAYNAPSVKGRFTISRDDSKNSIYLQMNSLKTEDTAVYYCHYVHYASASTVLPAFGVDAWGQGTTVTVSS
VL: DIVMTQSPLSLPVTPGEPASISCQASQELVHMNRNTYLHWYQQKPGQAPRLLIYKVSNRFPGVPDRFSGSGSGTDFTLKISRVEAEDVGVYYCAQGTSVPFTFGQGTKLEIK
B12: H183/L072 VH Y59K (antibody, name in Kabat numbering, V domains shown)
VH: QVQLVESGGGLVQPGRSLRLSCAASGFTFSNAWMHWVRQAPGKGLEWVAQIKDKGNAYAAYKAPSVKGRFTISRDDSKNSIYLQMNSLKTEDTAVYYCHYVHYASASTVLPAFGVDAWGQGTTVTVSS
VL: DIVMTQSPLSLPVTPGEPASISCQASQELVHMNRNTYLHWYQQKPGQAPRLLIYKVSNRFPGVPDRFSGSGSGTDFTLKISRVEAEDVGVYYCAQGTSVPFTFGQGTKLEIK
B13: H183/L072 VH Y59V (antibody, name in Kabat numbering, V domains shown)
VH: QVQLVESGGGLVQPGRSLRLSCAASGFTFSNAWMHWVRQAPGKGLEWVAQIKDKGNAYAAYVAPSVKGRFTISRDDSKNSIYLQMNSLKTEDTAVYYCHYVHYASASTVLPAFGVDAWGQGTTVTVSS
VL: DIVMTQSPLSLPVTPGEPASISCQASQELVHMNRNTYLHWYQQKPGQAPRLLIYKVSNRFPGVPDRFSGSGSGTDFTLKISRVEAEDVGVYYCAQGTSVPFTFGQGTKLEIK
B14: H183/L072 VH Y94I (antibody, name in Kabat numbering, V domains shown)
VH: QVQLVESGGGLVQPGRSLRLSCAASGFTFSNAWMHWVRQAPGKGLEWVAQIKDKGNAYAAYYAPSVKGRFTISRDDSKNSIYLQMNSLKTEDTAVYYCHIVHYASASTVLPAFGVDAWGQGTTVTVSS
VL: DIVMTQSPLSLPVTPGEPASISCQASQELVHMNRNTYLHWYQQKPGQAPRLLIYKVSNRFPGVPDRFSGSGSGTDFTLKISRVEAEDVGVYYCAQGTSVPFTFGQGTKLEIK
B15: H183/L072 VH Y59S (antibody, name in Kabat numbering, V domains shown)
VH: QVQLVESGGGLVQPGRSLRLSCAASGFTFSNAWMHWVRQAPGKGLEWVAQIKDKGNAYAAYSAPSVKGRFTISRDDSKNSIYLQMNSLKTEDTAVYYCHYVHYASASTVLPAFGVDAWGQGTTVTVSS
VL: DIVMTQSPLSLPVTPGEPASISCQASQELVHMNRNTYLHWYQQKPGQAPRLLIYKVSNRFPGVPDRFSGSGSGTDFTLKISRVEAEDVGVYYCAQGTSVPFTFGQGTKLEIK
B16: H183/L072 VH Y59M (antibody, name in Kabat numbering, V domains shown)
VH: QVQLVESGGGLVQPGRSLRLSCAASGFTFSNAWMHWVRQAPGKGLEWVAQIKDKGNAYAAYMAPSVKGRFTISRDDSKNSIYLQMNSLKTEDTAVYYCHYVHYASASTVLPAFGVDAWGQGTTVTVSS
VL: DIVMTQSPLSLPVTPGEPASISCQASQELVHMNRNTYLHWYQQKPGQAPRLLIYKVSNRFPGVPDRFSGSGSGTDFTLKISRVEAEDVGVYYCAQGTSVPFTFGQGTKLEIK
B17: H183/L072 VH Y59P (antibody, name in Kabat numbering, V domains shown)
VH: QVQLVESGGGLVQPGRSLRLSCAASGFTFSNAWMHWVRQAPGKGLEWVAQIKDKGNAYAAYPAPSVKGRFTISRDDSKNSIYLQMNSLKTEDTAVYYCHYVHYASASTVLPAFGVDAWGQGTTVTVSS
VL: DIVMTQSPLSLPVTPGEPASISCQASQELVHMNRNTYLHWYQQKPGQAPRLLIYKVSNRFPGVPDRFSGSGSGTDFTLKISRVEAEDVGVYYCAQGTSVPFTFGQGTKLEIK
B18: H183/L072 VH Y94A (antibody, name in Kabat numbering, V domains shown)
VH: QVQLVESGGGLVQPGRSLRLSCAASGFTFSNAWMHWVRQAPGKGLEWVAQIKDKGNAYAAYYAPSVKGRFTISRDDSKNSIYLQMNSLKTEDTAVYYCHAVHYASASTVLPAFGVDAWGQGTTVTVSS
VL: DIVMTQSPLSLPVTPGEPASISCQASQELVHMNRNTYLHWYQQKPGQAPRLLIYKVSNRFPGVPDRFSGSGSGTDFTLKISRVEAEDVGVYYCAQGTSVPFTFGQGTKLEIK
B19: H183/L072 VH Y59I (antibody, name in Kabat numbering, V domains shown)
VH: QVQLVESGGGLVQPGRSLRLSCAASGFTFSNAWMHWVRQAPGKGLEWVAQIKDKGNAYAAYIAPSVKGRFTISRDDSKNSIYLQMNSLKTEDTAVYYCHYVHYASASTVLPAFGVDAWGQGTTVTVSS
VL: DIVMTQSPLSLPVTPGEPASISCQASQELVHMNRNTYLHWYQQKPGQAPRLLIYKVSNRFPGVPDRFSGSGSGTDFTLKISRVEAEDVGVYYCAQGTSVPFTFGQGTKLEIK
B20: H183/L072 VH Y59W (antibody, name in Kabat numbering, V domains shown)
VH: QVQLVESGGGLVQPGRSLRLSCAASGFTFSNAWMHWVRQAPGKGLEWVAQIKDKGNAYAAYWAPSVKGRFTISRDDSKNSIYLQMNSLKTEDTAVYYCHYVHYASASTVLPAFGVDAWGQGTTVTVSS
VL: DIVMTQSPLSLPVTPGEPASISCQASQELVHMNRNTYLHWYQQKPGQAPRLLIYKVSNRFPGVPDRFSGSGSGTDFTLKISRVEAEDVGVYYCAQGTSVPFTFGQGTKLEIK

This assay deals with T1, Human CD137 ECD (human).
T1 construct: also called 4-1BB
T1 sequence (chain, as listed by the source limits assumed): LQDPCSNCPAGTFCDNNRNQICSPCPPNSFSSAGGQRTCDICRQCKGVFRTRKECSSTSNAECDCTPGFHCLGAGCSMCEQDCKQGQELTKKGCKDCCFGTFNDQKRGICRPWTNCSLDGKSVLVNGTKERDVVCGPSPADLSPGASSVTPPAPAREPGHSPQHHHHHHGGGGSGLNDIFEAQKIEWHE
As to the kind of experiment: single mutant vs template dBBDu183H.
In the case of B1, the “fold change of affinity” value is 1.5 fold. Take B2: the “fold change of affinity” value amounted to 3.2 fold. On to B3, for which the “fold change of affinity” value was 0.8 fold. Take B4: the “fold change of affinity” value was 0 fold.

B5: the “fold change of affinity” value was 0.9 fold. In the case of B6, the “fold change of affinity” value was determined as 0.8 fold. With B7, the “fold change of affinity” value worked out at 0.8 fold. In the case of B8, the “fold change of affinity” value stood at 0.9 fold. As for B9, the “fold change of affinity” value was found to be 1.1 fold. Take B10: the “fold change of affinity” value was found to be 0 fold.

Consider B11, for which the “fold change of affinity” value came to 0.8 fold.

In the case of B12, the “fold change of affinity” value was 1 fold. With B13, the “fold change of affinity” value was determined as 0.8 fold.

As to B14, the “fold change of affinity” value is 0 fold. On to B15, for which the “fold change of affinity” value was found to be 0.8 fold.

On to B16, for which the “fold change of affinity” value turned out to be 1.1 fold.

As to B17, the “fold change of affinity” value was 0.3 fold. With B18, the “fold change of affinity” value was 0 fold. Turning to B19, the “fold change of affinity” value was 0.7 fold. Then B20, with 1.5 fold.
